From patent US20150038427A1

Target: collagen
Experiment: SPR (Biacore 2000), collagen immobilised on CM-3 chip, peptide as analyte, from on-off binding kinetics

Kd: 1.2 µM
Binder: RRANAALKAGELYKSILYGC [peptide … (SILY)]
